Experimental data as given in the supplement of paper PMC7125110.
± gives the standard error. For some assays here: Fewer inactive variants are shown than the library holds.

B1: glmS ribozyme (parent)
chain: AUAAAAGCGCCAGAACUACAGAAAUGUAGUUGACGAGGAGGAGGUUUAUCGAAUUUUCGGCGGAUGCCUCCAAA

Tests used:
Settings in all cases: with glucosamine-6-phosphate
glucosamine-6-phosphate [1] = variants of: B1; assay: kcat; higher = faster cleavage; RNA array
Outline: (§1)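 Weighted Michaelis–Menten fits across concentrations supplied kcat and KM, based on kobs from one- or two-exponential decay fits to normalised per-tile medians. The data came from barcoded ribozyme variants transcribed in situ by E. coli RNA polymerase on sequenced MiSeq chips and tracked at 37 °C by a hybridised Cy3 probe. Glucosamine-6-phosphate (40 μM to 10 mM) in HEPES/KCl/Mg(OAc)2 buffer was flowed in.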

glucosamine-6-phosphate [2] = variants of: B1; assay: self-cleavage kobs at 640 uM GlcN6P; higher = faster cleavage; RNA array
Outline: as §1

glucosamine-6-phosphate [3] = variants of: B1; assay: self-cleavage kobs at 2500 uM GlcN6P; higher = faster cleavage; RNA array
Outline: as §1

glucosamine-6-phosphate [4] = variants of: B1; assay: self-cleavage kobs at 10000 uM GlcN6P; higher = faster cleavage; RNA array
Outline: as §1

glucosamine-6-phosphate [5] = variants of: B1; assay: self-cleavage kobs at 40 uM GlcN6P; higher = faster cleavage; RNA array
Outline: as §1

glucosamine-6-phosphate [6] = variants of: B1; assay: KM; higher = weaker cofactor use; RNA array
Outline: as §1

glucosamine-6-phosphate [7] = variants of: B1; assay: self-cleavage kobs at 160 uM GlcN6P; higher = faster cleavage; RNA array
Outline: as §1

Variant	kcat (glucosamine-6-phosphate [1])	self-cleavage kobs at 640 uM GlcN6P (glucosamine-6-phosphate [2])	self-cleavage kobs at 2500 uM GlcN6P (glucosamine-6-phosphate [3])	self-cleavage kobs at 10000 uM GlcN6P (glucosamine-6-phosphate [4])	self-cleavage kobs at 40 uM GlcN6P (glucosamine-6-phosphate [5])	KM (glucosamine-6-phosphate [6])	self-cleavage kobs at 160 uM GlcN6P (glucosamine-6-phosphate [7])
AUAAAAGCGCCGGAACUACAGAAAUGUAGUUGACGAGGAGGAGGUUUAUCGAAUUUUCGGCGGAUGCCACCAAA [A12G U69A]	0.000112 ± 2.3e-05 s⁻¹	4.87e-05 ± 2.1e-05 s⁻¹	0.000171 ± 5.2e-05 s⁻¹	9.85e-05 ± 1.9e-05 s⁻¹	–	–	–
AUAAAAGCGCCGGAACUACAGAAAUGUAGUUGACGAGUUGGAGGUUUAUCGAAUUUUCGGCGGAUGCCUCCAAA [A12G G38U A39U]	< 1e-05 s⁻¹	< 1e-05 s⁻¹	–	–	< 1e-05 s⁻¹	–	–
AUAAAAGCGCCGGAACUACAGAAAUGUAGCUGACGAGGAGGAGGUUUAUCGAAUUUUCGGCGGAUGCCUCCAAA [A12G U30C]	0.000109 ± 8.8e-06 s⁻¹	2.84e-05 ± 1.3e-05 s⁻¹	4.54e-05 ± 7.7e-06 s⁻¹	8.29e-05 ± 5.8e-06 s⁻¹	–	3.18 ± 0.8 mM	–
AUAAAAGCGCCGGAACUACAGAAAUGUAGUUGACGAGGAGGAGGUUUAUCGAAUGUUCGGCGGAUGCCUCCAAA [A12G U55G]	0.00137 ± 0.00037 s⁻¹	0.000113 ± 1.7e-05 s⁻¹	0.000784 ± 0.00017 s⁻¹	0.000815 ± 5.8e-05 s⁻¹	–	6.63 ± 3.2 mM	–
AUAAAAGCGCCGGAACUACAGAAAUGUAGUUGACGAGGAGGAGGUUUAUCGAAUUUUCGGCGGAAGCCUCCAAA [A12G U65A]	0.0002 ± 5.7e-06 s⁻¹	2.72e-05 ± 6.7e-06 s⁻¹	7.94e-05 ± 8.3e-06 s⁻¹	0.000143 ± 1.2e-05 s⁻¹	–	3.88 ± 0.23 mM	–
AUAAAAGCGCCGGAACUACAGAAAUGUAGUUGACGAGGAGGAGGUUUAUCGAAUUUUCGGCGGAUUCCUCCAAA [A12G G66U]	0.000245 ± 7.9e-05 s⁻¹	–	3.43e-05 ± 7.2e-06 s⁻¹	9.94e-05 ± 9.7e-06 s⁻¹	–	–	–
AUAAAAGCGCCGGAACUACAGAAAUGUAGUUUACGAGGAGGAGGUUUAUCGAAUUUUCGGCGGAUGCCUCCAAA [A12G G32U]	0.00313 ± 0.00012 s⁻¹	0.000164 ± 1.8e-05 s⁻¹	0.00055 ± 5.4e-05 s⁻¹	0.00144 ± 0.00014 s⁻¹	–	–	4.1e-05 ± 8.1e-06 s⁻¹
AUAAAAGCGCCGGAACUACAGAAAUGUAGUUGACGAGGAGUAGGUUUAUCGAAUUUUCGGCGGAUGCCUCCAAA [A12G G41U]	0.000763 ± 4.6e-05 s⁻¹	4.77e-05 ± 1.4e-05 s⁻¹	0.000147 ± 2.1e-05 s⁻¹	0.000377 ± 4.1e-05 s⁻¹	–	–	–
AUAAAAGCGCCGGAACUACAGAAAUGUAGUUGACGAGGAGGAGGUUUAUCGAAGUUUCGGCGGAUGCCUCCAAA [A12G U54G]	0.000855 ± 0.00011 s⁻¹	0.000179 ± 2.1e-05 s⁻¹	0.000475 ± 5.8e-05 s⁻¹	0.00064 ± 0.00017 s⁻¹	–	2.26 ± 0.46 mM	6.55e-05 ± 1.5e-05 s⁻¹
AUAAAAGCGCCGGAACUACAGAAAUGUACUUGACGAGGAGGAGGUUUAUCGAAUUUUCGGCGGAUGCCUCCAAA [A12G G29C]	0.000167 ± 5.4e-05 s⁻¹	3.94e-05 ± 1.1e-05 s⁻¹	4.98e-05 ± 1.3e-05 s⁻¹	0.000123 ± 1.4e-05 s⁻¹	–	–	–
AUAAAAGCGCCGGAACUACAGAAAUGUAGUUGACGAGGAGGAGGUUUAUCGAAUUUUCGGCGGAUUUCUCCAAA [A12G G66U C67U]	8.1e-05 ± 2.4e-06 s⁻¹	–	4.93e-05 ± 2.1e-05 s⁻¹	–	< 1e-05 s⁻¹	1.61 ± 0.11 mM	–
AUAAAAGCGCCGGAACUACAGAAAUGUAGUUGACGAGGAGGAGGUUUAUCGAAUUUUCGGCGGAUGCCUGCAAA [A12G C70G]	0.000171 ± 1.5e-05 s⁻¹	7.9e-05 ± 1e-05 s⁻¹	0.000109 ± 1.6e-05 s⁻¹	0.000166 ± 1.6e-05 s⁻¹	–	0.856 ± 0.24 mM	–
AUAAAAGCGCCGGAACUACAGAAAUGUAGUUGACGAUGAGGAGGUUUAUCGAAUUUUCGGCGGAUGCCUCCAAA [A12G G37U]	< 1e-05 s⁻¹	–	–	< 1e-05 s⁻¹	–	–	–
AUAAAAGCGCCGGAACUACAGAAAUGUAGUUGACGAGGAGGAGGUUAAUCGAAUUUUCGGCGGAUGCCUCCAAA [A12G U47A]	0.00138 ± 0.00029 s⁻¹	0.000152 ± 1.9e-05 s⁻¹	0.000455 ± 7.1e-05 s⁻¹	0.000864 ± 0.00013 s⁻¹	–	5.5 ± 1.6 mM	–
AUAAAAGCGCCGGAACUACAGAAAUGUAGUUGACGAGGAGGAGGUUCAUCGAAUUUUCGGCGGAUGCCUCCAAA [A12G U47C]	0.000813 ± 9.1e-05 s⁻¹	0.000111 ± 1.5e-05 s⁻¹	0.000412 ± 8.3e-05 s⁻¹	0.000577 ± 6.1e-05 s⁻¹	–	3.82 ± 0.72 mM	3.52e-05 ± 1.3e-05 s⁻¹
AUAAAAGCGCCGGAACUACAGAAAUGUAGUUGACGAGGAGGAGGUUUAUCGAAUUAUCGGCGGAUGCCUCCAAA [A12G U56A]	0.00105 ± 0.00021 s⁻¹	7.85e-05 ± 1.1e-05 s⁻¹	0.000221 ± 4.8e-05 s⁻¹	0.000592 ± 6.2e-05 s⁻¹	–	7.96 ± 2.3 mM	4.26e-05 ± 1.7e-05 s⁻¹
AUAAAAGCGCCGGAACUACAGAAAUGUAGUUGACGAGGAGGAGGUUUAUCGAAUUUCCGGCGGAUGCCUCCAAA [A12G U57C]	1.17e-05 ± 1.7e-06 s⁻¹	–	–	–	< 1e-05 s⁻¹	–	–
